Laboratory results taken from US20220259318A1 (Hoffmann-La Roche, published 2022).
Values joined by “and” are separate entries in the source; they are usually repeats but may differ in a detail not shown here. Equal entries are not always repeated.

T1: BCMA (UniProt Q02223 1-184, limits assumed)
T1 sequence (looked up): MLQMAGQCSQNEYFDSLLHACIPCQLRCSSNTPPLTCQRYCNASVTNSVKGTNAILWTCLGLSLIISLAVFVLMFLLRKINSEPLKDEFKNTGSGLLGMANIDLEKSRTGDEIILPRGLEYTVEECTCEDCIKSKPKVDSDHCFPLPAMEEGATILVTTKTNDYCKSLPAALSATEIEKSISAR

T2: murine GPRC5D (murine, UniProt Q9JIL6 1-344)
T2 construct: whole, on cells
T2 sequence (looked up): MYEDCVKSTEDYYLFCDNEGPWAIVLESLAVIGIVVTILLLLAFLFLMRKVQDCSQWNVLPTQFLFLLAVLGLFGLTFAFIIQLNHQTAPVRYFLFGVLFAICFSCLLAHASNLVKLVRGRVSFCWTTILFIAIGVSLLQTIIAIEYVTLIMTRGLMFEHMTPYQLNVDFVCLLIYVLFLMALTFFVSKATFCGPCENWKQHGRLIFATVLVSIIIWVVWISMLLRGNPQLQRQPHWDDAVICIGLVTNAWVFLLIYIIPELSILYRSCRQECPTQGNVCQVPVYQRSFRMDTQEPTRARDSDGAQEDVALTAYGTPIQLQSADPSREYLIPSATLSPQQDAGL


Key:
BCMA [1] = target: T1, BCMA; test: cell-based or functional assay
BCMA [2] = target: T1, BCMA; test: cell-based or functional assay; remark: listed apart in the source
BCMA [3] = target: T1, BCMA; test: cell-based or functional assay; remark: listed apart in the source
BCMA [4] = target: T1, BCMA; test: cell-based or functional assay; remark: listed apart in the source
human GPRC5D = target: T3, human GPRC5D (human, UniProt Q9NZD1 1-345); test: cell ELISA, CHO cells stably expressing human GPRC5D
T3 construct: also called G protein-coupled receptor class C group 5 member D; hu GPCR5D
T3 sequence (Q9NZD1 whole entry): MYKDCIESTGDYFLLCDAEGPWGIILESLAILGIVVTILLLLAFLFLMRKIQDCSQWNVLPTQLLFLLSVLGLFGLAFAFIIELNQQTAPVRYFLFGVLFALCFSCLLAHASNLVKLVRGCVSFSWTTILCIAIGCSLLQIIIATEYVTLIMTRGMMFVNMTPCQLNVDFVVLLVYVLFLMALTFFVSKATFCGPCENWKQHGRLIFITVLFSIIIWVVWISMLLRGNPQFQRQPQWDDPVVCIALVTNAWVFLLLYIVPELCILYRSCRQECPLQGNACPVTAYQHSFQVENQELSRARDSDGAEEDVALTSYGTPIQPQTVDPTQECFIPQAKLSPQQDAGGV
Protocol: (§1) Stable transfected CHO clones expressing either human GPRCSD or cynomolgus GPRCSD or murine GPRCSD or human GPRCSA were used to analyze the binding of potential lead candidate antibodies as IgGs. In detail, 10⁴ cells (viability≥98%) were seeded into 384 well-microtiter plates (BD Poly D-Lysin, #356662, volume: 25 μl/well) using fresh culture medium. After overnight incubation at 37° C., 25 μl/well dilutions of antibodies were added (15×1:3 dilutions in 1×PBS, assay conc. starts at 30 μg/ml) to the cells for 2 hours at 4° C. After one washing step using 90 μl/well PBST (10×PBS, Roche, #11666789001+0.1% Tween 20), cells were subsequently fixed by the addition of 50 μl/well 0.05% glutaraldehyde (Sigma Cat. No: G5882 in 1×PBS) for 10 min at room temperature (RT). After three additional washing steps using 90 μl/well PBST, secondary antibodies were added for detection: for human antibodies goat anti-human Ig a chain antibody HRP conjugate (Millipore #AP502P) diluted 1:2000 in blocking buffer (1×PBS (Roche #11666789001)+2% BSA (Bovine Serum Albumin Fraction V, fatty acid free, Roche, #10735086001)+0.05% Tween 20) was used (25 μl/well). […] After incubation for 1 h at RT and three additional washing steps using 90 μl/well PBST, 25 μl/well TMB substrate was added (Roche order no. 11835033001) for 10 min and color development to final ODs was determined by measurement at 370 nm/492 nm.

cynomolgus GPRC5D = target: T4, cynomolgus GPRC5D (cynomolgus); test: cell ELISA, CHO cells stably expressing cynomolgus GPRC5D
T4 construct: whole, on cells; also called cyno GPRC5D; CHO cy GPCR5D
Protocol: as §1

murine GPRC5D = target: T2, murine GPRC5D; test: cell ELISA on stably transfected CHO cells
Protocol: as §1
(§2) Cynomolgus crossreactivity was also detected for all other antibodies but at lower levels compared to 10B10 and 07A04 (FIG. 9). No significant binding to CHO cells expressing murine GPRC5D and no binding to CHO cells expressing the human version of GPRC5A was detected (FIG. 9).

human GPRC5A = target: T5, human GPRC5A (human, UniProt Q8NFJ5 1-357); test: cell ELISA on stably transfected CHO cells
T5 construct: whole, on cells; also called hu GPCR5A; GPRCSA
T5 sequence (Q8NFJ5 whole entry): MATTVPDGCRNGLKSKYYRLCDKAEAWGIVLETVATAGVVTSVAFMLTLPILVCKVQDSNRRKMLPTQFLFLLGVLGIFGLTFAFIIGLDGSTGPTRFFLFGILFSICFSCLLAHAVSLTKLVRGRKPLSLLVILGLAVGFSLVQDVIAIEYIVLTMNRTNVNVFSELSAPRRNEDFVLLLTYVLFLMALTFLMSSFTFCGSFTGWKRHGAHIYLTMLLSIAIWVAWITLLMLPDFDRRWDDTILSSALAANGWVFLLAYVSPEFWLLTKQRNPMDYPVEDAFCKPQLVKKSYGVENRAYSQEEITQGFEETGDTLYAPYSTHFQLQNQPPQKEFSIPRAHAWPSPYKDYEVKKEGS
Protocol: as §1, §2

Binder | EC50 (pM), TCB-mediated tumor cell lysis, AMO-1 (BCMA [1]) [pM] | EC50 (pM), TCB-mediated tumor cell lysis, IM-9 (BCMA [1]) [pM] | EC50 (pM), TCB-mediated tumor cell lysis, LP-1 (BCMA [1]) [pM] | EC50 (pM), TCB-mediated tumor cell lysis, NCI-H929 (BCMA [1]) [pM] | EC50 (pM), activation of autologous T-cells (CD69 on CD8 T cells) with a primary MM sample (BCMA [2]) [pM] | EC50 in vitro killing assay, AMO-1 (BCMA [3]) [nM] | EC50 in vitro killing assay, EJM (BCMA [3]) [nM] | EC50 in vitro killing assay, L363 (BCMA [3]) [nM] | EC50 in vitro killing assay, MOLP-2 (BCMA [3]) [nM] | EC50 in vitro killing assay, NCI-H929 (BCMA [3]) [nM] | EC50 in vitro killing assay, OPM-2 (BCMA [3]) [nM] | EC50 in vitro killing assay, RPMI (BCMA [3]) [nM] | AUC, TCB-mediated tumor cell lysis, AMO-1 (BCMA [4]) | AUC, TCB-mediated tumor cell lysis, IM-9 (BCMA [4]) | AUC, TCB-mediated tumor cell lysis, LP-1 (BCMA [4]) | AUC, TCB-mediated tumor cell lysis, NCI-H929 (BCMA [4]) | EC50 (human GPRC5D) | EC50 (cynomolgus GPRC5D) | binding result (murine GPRC5D) | binding result (human GPRC5A)
BCMA-TCB (bispecific antibody, human IgG1, kappa, L234A L235A) light 1: EIVLTQSPGTLSLSPGERATLSCRASQSVSAYYLAWYQQKPGQAPRLLMYDASIRATGIPDRFSGSGSGTDFTLTISRLEPEDFAVYYCQQYERWPLTFGQGTKVEIKRTVAAPSVFIFPPSDRKLKSGTASVVCLLNNFYPREAKVQWKVDNALQSGNSQESVTEQDSKDSTYSLSSTLTLSKADYEKHKVYACEVTHQGLSSPVTKSFNRGEC light 2: EVQLLESGGGLVQPGGSLRLSCAASGFTFSTYAMNWVRQAPGKGLEWVSRIRSKYNNYATYYADSVKGRFTISRDDSKNTLYLQMNSLRAEDTAVYYCVRHGNFGNSYVSWFAYWGQGTLVTVSSASVAAPSVFIFPPSDEQLKSGTASVVCLLNNFYPREAKVQWKVDNALQSGNSQESVTEQDSKDSTYSLSSTLTLSKADYEKHKVYACEVTHQGLSSPVTKSFNRGEC heavy 1: EVQLLESGGGLVQPGGSLRLSCAASGFTFSSYAMNWVRQAPGKGLEWVSAITASGGSTYYADSVKGRFTISRDNSKNTLYLQMNSLRAEDTAVYYCARYWPMSLWGQGTLVTVSSASTKGPSVFPLAPSSKSTSGGTAALGCLVEDYFPEPVTVSWNSGALTSGVHTFPAVLQSSGLYSLSSVVTVPSSSLGTQTYICNVNHKPSNTKVDEKVEPKSCDKTHTCPPCPAPEAAGGPSVFLFPPKPKDTLMISRTPEVTCVVVDVSHEDPEVKFNWYVDGVEVHNAKTKPREEQYNSTYRVVSVLTVLHQDWLNGKEYKCKVSNKALGAPIEKTISKAKGQPREPQVCTLPPSRDELTKNQVSLSCAVKGFYPSDIAVEWESNGQPENNYKTTPPVLDSDGSFFLVSKLTVDKSRWQQGNVFSCSVMHEALHNHYTQKSLSLSPGK heavy 2: not shown | 137 | 55.7 | 76.4 | 171 | 52.5 | 0.518 | 0.132 | 0.127 | 0.032 | 0.311 | 0.033 | 0.011 | 4.73e+07 | 1.1e+07 | 1.11e+07 | 1.07e+07 | – | – | – | –
07A04 IgG (antibody, V domains shown, the format as tested is not certain) VH: QVTLKESGPGILQPSHTLSLTCSFSGFSLSTYGMGVNWIRQPSGKGLEWLASIWWNGNTYNNPSLKSRLTVSKDTSNNQAFLKVTSVDTADTATYYCVHTRGIIRGRGLFFDYWGQGVMVTVSS VL: DVQMTQSPYNLAASPGESVSINCKASKSISKYLAWYQQKPGKANKLLIYDGSTLQSGIPSRFSGSGSGTDFTLTIRSLEPEDFGLYYCQQHNEYPLTFGSGTKLEIKR | – | – | – | – | – | – | – | – | – | – | – | – | – | – | – | – | 0.0243 µg/mL and 0.162 nM | 0.115 µg/mL and 0.764 nM | no binding (tested: assay conc. starts at 30 µg/ml) | no binding (tested: assay conc. starts at 30 µg/ml)
